What was measured:
P. aeruginosa P8 = experiment: Mouse model of acute lung infection, P. aeruginosa P8; assay type: in vivo, Pseudomonas aeruginosa
Method: Study design. […] For all experiments 6 week-old, female, murine pathogen free C57/BL6 mice weighing 15-21 g were used (Charles Rivers Laboratories, UK). All mice received food and water ad libitum and were housed in groups during the experiments. Power calculations were used to predetermine sample size (n=6, for all treatment experiments). Mice were culled when required as determined by a scoring system or culled at the pre-determined 24 h time point. All mice, including outliers were included in the statistical analysis. Experiments were either carried out once only or repeated once (defined for each experiment).
(§1) Model of acute lung infection. Female C57/BL6 mice were inoculated intranasally with 25 μl of bacterial culture containing approximately 10^7 CFU of the selected P. aeruginosa strain^36. Antibiotic treatments were administered at either 6 h pre-infection or 1 h post-infection and were administered only once. Pyocins or tobramycin dissolved in PBS were administered via intranasal administration as described above. Two different end-points were used in these experiments. In order to determine a reduction in the bacterial load of the lungs compared to the untreated controls, all mice in the experiment were culled by carbon dioxide asphyxiation at the same time; 4-6 h post infection. To determine if mice could survive infection after pyocin or tobramycin treatment, mice were monitored closely, culled by carbon dioxide asphyxiation when required as determined by a scoring system or culled at the pre-determined 24 h time point. Uninfected mice, treated with pyocins, were used as controls in the first series of experiments in order to ensure no adverse effects from pyocin treatment. These controls were stopped in later experiments in order to reduce the number of animals used, once it was clear that the pyocins were not harmful. For CFU determination, lungs were removed aseptically and kept on ice in 750 μl of PBS until homogenised. Serial 10-fold dilutions of the homogenised lung were plated on Pseudomonas selective agar (20 g peptone, 1.5 g K2HPO4, 1.5 g MgSO4·7H2O, 10 ml glycerol, 15 g agar, 0.025 g Irgasan per litre) and incubated at 37° C. for 24 h and then room temperature for 24 h before the colonies were counted.

P8AP41T = experiment: Mouse model of acute lung infection, AP41 tolerant strain P8AP41T; assay type: in vivo, Pseudomonas aeruginosa; conditions: 3 mg ml^−1 1 h post-infection
Method: as §1
In order to determine if pyocin tolerance or resistance was acquired upon pyocin treatment in vivo, viable bacteria recovered from mice that survived infection to the 24 h end-point, in all experiments discussed in this work, were tested for pyocin susceptibility. From these experiments no pyocin resistant colonies were isolated. […] Importantly, sensitivity to pyocins S5 and L1 were unaffected in vitro in this pyocin AP41-tolerant strain (FIG. 3a) and this was also shown to be the case in vivo when mice were infected with P8AP41T.

P. aeruginosa P5 = experiment: Pyocin activity in vitro against P. aeruginosa P5; assay type: cell-based, Pseudomonas aeruginosa
Method: (§2) Pyocin sensitivity assays: overlay spot plate method. Soft agar overlay spot plates were performed using the method of ^35. 150 μl of test strain culture at OD600 nm=0.6 was added to 6 ml of 0.8% soft agar and poured over an LB agar plate. 5 μl of bacteriocin, lung homogenate or blood at varying concentrations was spotted onto the plates and incubated for 24 h at 37° C.
(§3) Since strains of P. aeruginosa are phenotypically diverse, we tested the efficacy of the pyocins against three additional isolates: P. aeruginosa P17 and P. aeruginosa P5 (mucoid), both from cystic fibrosis patients and P. aeruginosa E2, an environmental isolate.

P. aeruginosa P17 = experiment: Mouse model of acute lung infection, P. aeruginosa P17; assay type: in vivo, Pseudomonas aeruginosa
Method: as §1
Since strains of P. aeruginosa are phenotypically diverse, we tested the efficacy of the pyocins against three additional isolates: P. aeruginosa P17 and P. aeruginosa P5 (mucoid), both from cystic fibrosis patients and P. aeruginosa E2, an environmental isolate. Pyocin S2 was not active against P. aeruginosa P5 or P. aeruginosa E2 in vitro therefore was not used to treat these strains in vivo and similarly pyocin L1 was not used against P. aeruginosa P17. […] Lung homogenates from P. aeruginosa E2-infected AP41-treated mice contained high levels of viable bacteria, reduced only 10-fold relative to control mice (Table 1). […] Thus, pyocins show strong efficacy against diverse strains of P. aeruginosa with pyocin S5 treatment displaying the largest effect on reducing bacterial load.

P. aeruginosa E2 = experiment: Pyocin activity in vitro against P. aeruginosa E2; assay type: cell-based
Method: as §2, §3

P. aeruginosa = conditions: in vivo; cited from earlier work

B1: Pyocin S2: S-type pyocin, SEQ ID NO: 1; targeting domain binds FpvAI, effector has DNase activity (protein, listed as Pseudomonas aeruginosa)
chain: MAVNDYEPGSMVITHVQGGGRDIIQYIPARSSYGTPPFVPPGPSPYVGTGMQEYRKLRSTLDKSHSELKKNLKNETLKEVDELKSEAGLPGKAVSANDIRDEKSIVDALMDAKAKSLKAIEDRPANLYTASDFPQKSESMYQSQLLASRKFYGEFLDRHMSELAKAYSADIYKAQIAILKQTSQELENKARSLEAEAQRAAAEVEADYKARKANVEKKVQSELDQAGNALPQLTNPTPEQWLERATQLVTQAIANKKKLQTANNALIAKAPNALEKQKATYNADLLVDEIASLQARLDKLNAETARRKEIARQAAIRAANTYAMPANGSVVATAAGRGLIQVAQGAASLAQAISDAIAVLGRVLASAPSVMAVGFASLTYSSRTAEQWQDQTPDSVRYALGMDAAKLGLPPSVNLNAVAKASGTVDLPMRLTNEARGNTTTLSVVSTDGVSVPKAVPVRMAAYNATTGLYEVTVPSTTAEAPPLILTWTPASPPGNQNPSSTTPVVPKPVPVYEGATLTPVKATPETYPGVITLPEDLIIGFPADSGIKPIYVMFRDPRDVPGAATGKGQPVSGNWLGAASQGEGAPIPSQIADKLRGKTFKNWRDFREQFWIAVANDPELSKQFNPGSLAVMRDGGAPYVRESEQAGGRIKIEIHHKVRIADGGGVYNMGNLVAVTPKRHIEIHKGGK
- survival (P. aeruginosa P8; 300 μg ml^−1 and 30 μg ml^−1 (both concentrations), endpoint 24 h post-infection): survived until the endpoint of the experiment at 24 h post-infection
- reduction of bacterial load in lung (P. aeruginosa P8; 3 mg ml^−1 intranasal 1 h post-infection, culled 4.5 h post-infection (FIG. 1c)): ~80 fold
- reduction of bacterial numbers in lung (P. aeruginosa P8; C57/BL6 mice, 3 mg ml^−1 intranasal 6 h pre-infection, culled 4 h post-infection (FIG. 1a)): approximately 25 fold
- Lowest active concentration tested (P. aeruginosa P8; lowest concentration tested with which the treated mice survived to 24 h): 30 µg/mL
- Corresponding molarity (P. aeruginosa P8; molarity of lowest active concentration tested): 358 nM
- bacterial numbers in lung homogenates (P8AP41T; 24 h (FIG. 3b)): significantly reduced bacterial numbers
- survival (P8AP41T; endpoint 24 h, PBS controls culled 6 h post-infection (FIG. 3b)): survived until the endpoint of the experiment at 24 h
- activity in vitro (P. aeruginosa P5): not active
- survival / protection (P. aeruginosa P17; pyocin 3 mg ml^−1, endpoint 24 h, infected controls culled at 4 h): survived until the 24 h endpoint
- bacterial count in lung, P17 (P. aeruginosa P17; pyocin 3 mg ml^−1, treated mice survived to 24 h, no treatment 4.4 × 10^5 CFU/lung): No colonies
- activity in vitro (P. aeruginosa E2): not active
- activity in an invertebrate model of infection (P. aeruginosa): active

From US12162911B2, “Pulmonary administration of pyocins for treating bacterial respiratory infections” (priority 2014, dated 2024)
